The source of these data is the nanobody polyreactivity screen of Harvey et al. (2022).

The series in a line: yeast display, Sf9 membrane polyspecificity reagent, FACS + sequencing; frameworks hold sequencing errors. An outline of the steps: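 Nanobodies from a synthetic yeast display library (Saccharomyces cerevisiae BJ5465), induced 36–48 hours with galactose, were stained 1 hour at 4 °C with 10% biotinylated, detergent-solubilized Sf9 membrane reagent, enriched on streptavidin microbeads, then FACS-sorted. Anti-HA (expression) and streptavidin (reagent binding) fluorescence set low and high (top ~1%) gates. Polyreactivity labels come from the gate of origin. Genes were colony-PCR amplified, MiSeq 2 × 250 sequenced and filtered by CDR length.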
With “QVQLVESGGGLVQAGRSHRLTCAASGSTDSNAMGWYRQAPGKERELVAAISGTGSRTYYADSVKGRFTISRDNAKNSVYLEMNSLKPEDTAVYYCAASPDVSFRRFSLVVSGDYWGQGNQVTVSS”, the “polyreactivity (PSR sort gate)” value is “high polyreactivity”.

Turning to “QVQLVESGGGLVQAGRSLRISRAASGSIFYKNVMGWYRQAPGKERELVAAITSGGSTYYADSVKGRFTISRDNAKNTVYFQMNSVYPEYSAVYYWAAGFGRNPVSRYYWGQGTQVTVSS”, the “polyreactivity (PSR sort gate)” value is recorded as “high polyreactivity”.

For “QVQLVESGGGLVQAGRSLRLICAASGSIFRKYAMCWYRQAPVKESELVAAINYSGGNTYYADSVKGRFTISRDNSKNTVYLQMNSLKPEDTAVYFCAADSVRHYWWAYYYWGQVTQVTVSS”, the “polyreactivity (PSR sort gate)” value was “low polyreactivity”.

For the sequence “QVQLVESGGGLVQAGRSLRLSCAASGFTFSWYTMGWYRQAPGKERELVAAISSSGGNTYYADSVKGRFTISRDNAKNTVYLQMNSLKPEDNAVYYCVARFGSYGYYYWGQGTQVTVSS”, the “polyreactivity (PSR sort gate)” value is on record as “high polyreactivity”.

With “QVQLVESGGGLVQAGRSLRLSCAASGFTLTPYAMGWYRQAPGKERELVARISDSGDSTYYADSVKGRFTMSRDNAKNTVYLQMNRLKPEDTAVYYCATDWNAGIDYYRFYADEYNYWGQGSQVTVSS”, the “polyreactivity (PSR sort gate)” value is “low polyreactivity”.

“QVQLVESGGGLVQAGRSLRLSCAASGINFAGYAKGWYRQAPGKERELVAAISRGGSTYYADSVKGRFTISRDNAKNTVYFQMNSLIPEDTAVYYCNTYYQQGYFTYTGWNYNYWGQGTQVTVST”: the “polyreactivity (PSR sort gate)” value is listed as “high polyreactivity”.

Consider “QVQLVESGGGLVQAGRSLRLSCAASGITFSRNDMGWYRQAPGKEMQLVAAISRSGGRTYYADSVKGRFTLSRDNAKNTVYLQMNCLNPEDTAVYYCNRDIGGTSVLDDYWGQGTQVTVSS”, for which the “polyreactivity (PSR sort gate)” value is on record as “low polyreactivity”.

Turning to “QVQLVESGGGLVQAGRSLRLSCAASGITFTGYALGWSRQATGKERELVAAISKRGARTYYADSVKGRFTISRDNAKNTVYLQMNSLKPEDTAVYYCAADSTAQDIAGLYYWGQGTQVTVSS”, the “polyreactivity (PSR sort gate)” value is listed as “high polyreactivity”.

As to “QVQLVESGGGLVQAGRSLRLSCAASGLTFLYYAMGWYRHAPAKEMEFVAANSNRDGSTYYADSVKGRFTISRDNAKNTVYLQMNSLKPEDTAGYYCYADGYVDYCFLKYRFEFDYWGQGTQVTVSS”, the “polyreactivity (PSR sort gate)” value was “low polyreactivity”.

In the case of “QVQLVESGGGLVQAGRSLRLSCAASGLTFVNYTMGCYRQAPGKEREFVAAITSSGGSSTYYADSVKGRFTHSRDNAKNTVYLQMNSLYPEDTAVYYCAAGFTLYVDIVILTVNTVDYWGQGTQVTVSS”, the “polyreactivity (PSR sort gate)” value is “low polyreactivity”.

As for “QVQLVESGGGLVQAGRSLRLSCAASGNTFWFYGMGWYRQAPGKVRELVAAITSGGSTDYADSVKGRFTISRENAKNTVSLQMNSLKPEDTAVYYCAAEPVAYYGSSYGYWGQGTQVTVSS”, the “polyreactivity (PSR sort gate)” value is “low polyreactivity”.

“QVQLVESGGGLVQAGRSLRLSCAASGRIFTPNAMGWYRQAPGKERELVAAISSSGRTSYADSLKGRFTNTSDNAKITVYLQMNSLKPEDTAVYYCNATWRWTRRGYDYWGQGTQVTVSS”: the “polyreactivity (PSR sort gate)” value is recorded as “low polyreactivity”.

As for “QVQLVESGGGLVQAGRSLRLSCAASGRTFDEYAMGWYRQAPGKERELVAAISARGGRTYYADSVKGRFTISRDNAKNTVYLQMNSLKPEDTAVYYCAAAGYITRYDRYDYWGQGTQVTVSS”, the “polyreactivity (PSR sort gate)” value was “high polyreactivity”.

As to “QVQLVESGGGLVQAGRSLRLSCAASGRTFYHYAMGWYRQAPGKERELVAAIDWSTASTYYADSVKGRFTISRDNAKNTVYLQMNSLIQEDTAVYYCATDSAILINFVLYDYWGQGTQVTVSS”, the “polyreactivity (PSR sort gate)” value is on record as “low polyreactivity”.

Regarding “QVQLVESGGGLVQAGRSLRLSCAASGRTFYYYAMVWNRQAPGKERELVAAISWRSGSTYYADSVKGRFTISRDNAKNTLYLQMNSLKPEDTAVYYCATSVRFYWFADGYWGQGTQVTVSS”, the “polyreactivity (PSR sort gate)” value was “high polyreactivity”.

With “QVQLVESGGGLVQAGRSLRLSCAASGSIFYKYARGWYRQAPGKERELVAAISRSRGSTYYADSVKGRFTISRDNAKNTVYLQMNSLKPEDTAVYYCNAYYRYSFSELDKYGYWGQGTQVTVSS”, the “polyreactivity (PSR sort gate)” value is “high polyreactivity”.

“QVQLVESGGGLVQAGRSLRLSCAASGSTLTRNAMGWYRQAPGKERELVAAITQRGGSTYYADSVKGRFTISRDNAKNTVYLQMNSLKPEDTAVYYCAAAYRGYARHDYWGQGTQVNVSS”: the “polyreactivity (PSR sort gate)” value is listed as “high polyreactivity”.

In the case of “QVQLVESGGGLVQAGRSLRLSCPASGSTFYTNHMGWYRQAPGKERELVAAITSAGNTNYADSVKGRFTISRDNAKNTVYLQMNSLKPEDTAVYYYYYYQYDYWGQGTQVTVSS”, the “polyreactivity (PSR sort gate)” value is given as “low polyreactivity”.

For the sequence “QVQLVESGGGLVQAGSSLRLSCAASGFTFNRYAMGWYRQAPGKERELVAAISWSGGSTYYADSVKGRFTISRDNAKNTVYLQMNSLKPEDTEVYYCSDATAYYRYRGGYDYWGQGTQVTVSS”, the “polyreactivity (PSR sort gate)” value was “high polyreactivity”.

On to “QVQLVESGGGLVQAGVSLLLSCAASGSTLYYNAMGWYRQAPGKERELVAAITSGGSTSYADSVKGRFTISRDNAKHTVYLQRNSLKPEDTAVYYCAAVFYRRFDYWGQGTQVTVSS”, for which the “polyreactivity (PSR sort gate)” value is recorded as “low polyreactivity”.

For the sequence “QVQLVESGGGLVQAGVSLRLRCASSGSTFAYNAMGWYRQAPGKESELVAAISTSGGYTYYADSVKGRFTISRDNAKNTVYLQMNSLKPEDTAVYYCYAVGRSKHGYSRSYYWGQGTQVTVSS”, the “polyreactivity (PSR sort gate)” value was “high polyreactivity”.

“QVQLVESGGGLVQAGVSLRLSCAASGFIFRTYAMGWYRQAPGKEREVVAAITGRGGTTYYADSVKGRFTISRDNAKNTVYLQMNSLKPEDTAVYYCAARGRVSVNTQRYAAYNYLGQGTQVTVSS”: the “polyreactivity (PSR sort gate)” value was “high polyreactivity”.

Turning to “QVQLVESGGGLVQAGVSLRLSCAASGFIYDHNAMGWYRQAPGKERELVAAITRSGGSTYYAYSVKGRFTISRDNAKNTVYLQMNSLKQEDTAVYYCNADAYGTPEFTSYAVRYDYWGQGTQVTVSS”, the “polyreactivity (PSR sort gate)” value is listed as “low polyreactivity”.

Regarding “QVQLVESGGGLVQAGVSLRLSCAASGFTFSRNAMGWYRQAPGKERELVAAISRSGGSTYYAYSVKGRFTISRDNAKNTVYLQINSLKQEDTAVYYCATSCTPNYFVTSDYWGQGTQVTVSS”, the “polyreactivity (PSR sort gate)” value is given as “high polyreactivity”.

On to “QVQLVESGGGLVQAGVSLRLSCAASGRIFGPYAMGWYRQAPGKERELVAAITWRGDRTYYADSVKGRFTISRDNAKNTVYLQMNSLKPEDTAVYYCAARGGRSEYDYWGLGTQVTVSS”, for which the “polyreactivity (PSR sort gate)” value is given as “low polyreactivity”.

In the case of “QVQLVESGGGLVQAGVSLRLSCAASGRIFYPYVMGWYRQAPGKERELVAAISDSTGSTYYADSVKGRFTISRDNAKNTVYLQMNSLKPEDTAVYYCAAGWFYATYWRFYYWGQGTQVTVSS”, the “polyreactivity (PSR sort gate)” value is on record as “low polyreactivity”.

“QVQLVESGGGLVQAGVSLRLSCAASGRLFYRYAMGWYRQAPGKERELVAGISRGGSTNYADSVKGRFTISRDNAKNTVYLLMKSLKPEDSAVYYCAADAKRTLSYEFGYWGQGTQVTVSS”: the “polyreactivity (PSR sort gate)” value is “high polyreactivity”.

As to “QVQLVESGGGLVQAGVSLRLSCAASGRTFEDKAMGSDRQAPGKERELVAAISSDGSTNYADSVKGRFTISRDNAKYTVYLQKYSLKPVDTAVYYCNSTVYWPYDWSTSDYWGQGTQVTVSS”, the “polyreactivity (PSR sort gate)” value was “low polyreactivity”.

Take “QVQLVESGGGLVQAGVSLRLSCAASGRTFGHYTMGWYRQAPGKERELVARISRTGSTKYADSVKGPFTISRDNAKNTVYLQMNSLKPEDTAVYYCARVQAGGYGERVYAYHYDYWGQGTQVTVSS”: the “polyreactivity (PSR sort gate)” value is on record as “high polyreactivity”.

Consider “QVQLVESGGGLVQAGVSLRLSCAASGRTFSYYVMGWYRQAPGKETELVAAITTRTSSTYYADSVKGRFTISRDNAKNTVYLQMNSLKPEDTAVYYCARRPRARAYNYWGQGTQVTVSS”, for which the “polyreactivity (PSR sort gate)” value is recorded as “high polyreactivity”.

In the case of “QVQLVESGGGLVQAGVSLRLSCAASGRTFVSNAMGWYRQAPGKEREFVAAIRDSGGRTYYADSVKGRFTISRDNANNTVYLQMTSLIPEDTAVYYCATRGVSPSRPGYYWGQGTQVTVSS”, the “polyreactivity (PSR sort gate)” value is listed as “high polyreactivity”.

“QVQLVESGGGLVQAGVSLRLSCAASGRTLRRTAMGWYRQAPGTERELVAAISSIGGSTYYADSVKGRFTISRDNAKITVYLQMNSLKPEDTAVYYCAADILIYPYSYDYYWGQGTQVTVSS”: the “polyreactivity (PSR sort gate)” value is listed as “high polyreactivity”.

In the case of “QVQLVESGGGLVQAGVSLRLSCAASGSIFGRYAMGWYRQAPGKERELVAAINDDSGRTYYADSVKGRFTISRDNAKNTVYLQKNSLKPEDTAVYYCATGRQSEYDYWGQGTQVTVSS”, the “polyreactivity (PSR sort gate)” value is listed as “high polyreactivity”.

In the case of “QVQLVESGGGLVQAGVSLRLSCAASGSIFRHNAMGWYRQAPGKERELVAAINWSGGRTYYADSVKGRFTISRDNAKNTVYLHMNSLKPEDTAVYYCADPVPRSWYDYWGQGTQVTVSS”, the “polyreactivity (PSR sort gate)” value is recorded as “high polyreactivity”.

“QVQLVESGGGLVQAGVSLRLSCAASGSIFYAYAMGWYRQAPGKERELVAVINSGGSTYYADSVKGRFRISSEYAKNTVYLQMNSLKPEDTAVYYCNGTQYRGKYDYPPPGRGYYYWGQGTHVTVSS”: the “polyreactivity (PSR sort gate)” value was “high polyreactivity”.

Turning to “QVQLVESGGGLVQAGVSLRLSCAASGSIIWVYAMGWYRQAPGNERELVAAITSGVSTYYADSVKGRFTISRDNAKNTVYFQMNSLKPEETAVYYCAVVGGFRWIRMEYWGQGTQVTVSS”, the “polyreactivity (PSR sort gate)” value is given as “low polyreactivity”.

For “QVQLVESGGGLVQAGVSLRLSCAASGSILTINAMGLYRQAPGKERELVPAITSGGGSTYYADSVKGRFTISRDNAKNTVYLQMNSLKPEDTAVYYCNKVFVLPYKFVAWFDYWGQGTQVTVSS”, the “polyreactivity (PSR sort gate)” value was “low polyreactivity”.

For “QVQLVESGGGLVQAGVSLRLSCAASGSTFGRYTMGWYRQAPGKERELVAVITRGGDSTYYADSVKWRFTISRDNAKNTVYLQMNSLKPEDTAVYYCNAETNDWYYQAYLEVEYWGQGTQETVSS”, the “polyreactivity (PSR sort gate)” value is “low polyreactivity”.

For “QVQLVESGGGLVQAGVSLRLSCAASGSTFGWYAMGWYRQAPGKERELVAAISASGGSTYYADSVKGRFTISRDNAKNNVYLQMNSLKPEDTAVYYCAVRAWKFLTRYDYWGQGTKVTVSS”, the “polyreactivity (PSR sort gate)” value is reported as “high polyreactivity”.

Take “QVQLVESGGGLVQAGVSLRLSCAASGSTFTGTAMGWYIQAPGKERELVASINGSSGSTYYADSVKGRFTISRDNAKNTVYLQMNSLKPEDTAVYYCAKDSFLHFPRVGWVGLEYWGQGTQVTLSS”: the “polyreactivity (PSR sort gate)” value was “low polyreactivity”.
